The values that follow come from patent publication US6949244.

The target in experiment [1] is BrE-3. As to the kind of experiment: RIA: plate coated with 100 ng 11D10, 125I-BrE-3 bound.
Experiment [2] has as its target murine monoclonal anti-HMFG antibody MC-10 (BrE-1). Kind of experiment: competition RIA: 125I-11D10 on BrE-1 coated plate, 0.250 µg unlabeled 11D10.
For experiment [3] the target is unchanged. Kind of experiment: RIA: plate coated with 100 ng 11D10, 125I-BrE-1 bound.
Experiment [4] has the same target. Kind of experiment: RIA: plate coated with 300 ng 11D10, 125I-BrE-1 bound.
Experiment [5] has as its target BrE-3. Kind of experiment: RIA: plate coated with 300 ng 11D10, 125I-BrE-3 bound.
Experiment [6] concerns the target BrE-3. As to the kind of experiment: RIA: plate coated with 1000 ng 11D10, 125I-BrE-3 bound.
Experiment [7] has as its target murine monoclonal anti-HMFG antibody MC-10 (BrE-1). Kind of experiment: competition RIA: 250 ng 11D10 mixed with labeled BrE-1, binding to MCF-7 / SKBR3 cell monolayers.
Experiment [8] has the same target. Kind of experiment: RIA: plate coated with 1000 ng 11D10, 125I-BrE-1 bound.
The target is the same in experiment [9]. Kind of experiment: RIA: 125I-11D10 bound to BrE-1 coated plate, no inhibitor.

Turning to monoclonal anti-idiotype antibody 11D10, the cpm in experiment [1] stood at 263 cpm; in experiment [3], 6150 cpm; in [4], 16700 cpm; in experiment [5] it was 260 cpm; in [6] it was 374 cpm; in [8], 44200 cpm. The % inhibition in [2] was 95%; in experiment [7], over 90%. Further, the cpm Bound stood at 1850 cpm in experiment [2] and 37100 cpm in experiment [9].
